B1: G-CSF: granulocyte colony stimulating factor, growth factor used for stem cell mobilization (protein, UniProt P09919 31-207, looked up)
Granulocyte …: TPLGPASSLPQSFLLKCLEQVRKIQGDGAALQEKLVSECATYKLCHPEELVLLGHSLGIPWAPLSSCPSQALQLAGCLSQLHSGLFLYQGLLQALEGISPELGPTLDTLQLDVADFATTIWQQMEELGMAPALQPTQGAMPAFASAFQRRAGGVLVASHLQSFLEVSYRVLRHLAQP
B2: oncostatin M (OSM): 28-kDa glycoprotein of cytokine family, macrophage derived factor (protein)
chain: AAIGSCSKEYRVLLGQLQKQTDLMQDTSRLLDPYIRIQGLDVPKLREHCRERPGAFPSEETLRGLGRRGFLQTLNATLGCVLHRLADLEQRLPKAQDLERSGLNIEDLEKLQMARPNILGLRNNIYCMAQLLDNSDTAEPTKAGRGASQPPTPTPASDAFQRKLEGCRFLHGYHRFMHSVGRVFSKWGESPNRSRR

Assays:
LKS stem cells = assay: G-CSF alone induced mobilization of LKS stem cells in diabetic mice; format: in vivo; settings: G-CSF only
Source text: In order to obtain in vivo validation of such mechanism, inhibition of oncostatin M (OSM) has been carried out in mice induced with diabetes by injecting streptozotocin as mentioned above and analyzed after 4 weeks from hyperglycemia development, by intraperitoneal injection of a polyclonal neutralizing antibody (AF-495-NA, R&D Systems) specific for murine oncostatin M (OSM), before beginning a marrow stimulation cycle by a subcutaneous injection of G-CSF ([…] for 4 consecutive days).

[1] = system: SDF-1α/CXCL12 expression in human mesenchymal stem cells; assay: Induction of SDF-1α/CXCL12 gene expression in human mesenchymal stem cells by oncostatin M (qPCR); format: cell-based; settings: increasing concentrations of OSM
Experimental: Therefore, the effect of such media on the gene expression of SDF-1α/CXCL12 in human (stromal) mesenchymal stem cells by qPCR was evaluated (primers forward ATGCCCATGCCGATTCTT [SEQ ID NO. 5]; reverse […] [SEQ ID NO. 6]; reference sequence NCBI NM_000609.6).

| Molecule | mobilization of LKS stem cells (LKS stem cells) | expression of SDF-1α/CXCL12 [1] |
| --- | --- | --- |
| B1 | not able to induce mobilization |  |
| B2 |  | progressively increase the expression |

Reference: patent US20200291109A1, “Composition to induce bone marrow stem cell mobilization” (Universitá degli Studi di Padova, priority 2014, published 2020)
